The chains are these.
T1: human IL-22 (human, UniProt Q9GZX6 34-179)
T1 sequence: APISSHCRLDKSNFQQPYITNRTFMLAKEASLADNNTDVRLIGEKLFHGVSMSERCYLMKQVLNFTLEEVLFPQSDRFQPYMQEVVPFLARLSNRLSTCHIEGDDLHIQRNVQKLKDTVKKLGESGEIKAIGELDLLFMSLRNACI

B1: 375G06 scFv (non-germlined) (scFv)
scFv: EVQLVQSGAEVKKPGASVKVSCQASGYTFSDYYIHWVRQTPGQGFEWMGWVNPDTGGTRYAQKFQGWVTMTRDMSNTTAYMELPRLRDDDTAVYYCARDLTGYDYYDRWGQGTLVTVSSGGGGSGGGGSGGGGGGSGGGGGGSGGGGSAQSVLTQPPSMSVAPGKTATITCGGNNFRNKRVHWYQQRPGQAPVLVIYYDSDRPSGIPERFSGSRSGNTATLTISRVEAGDEADFYCQVWDFLADEAMFGGGTKLTVLGAAAH
B2: 368D04 scFv (non-germlined) (scFv)
scFv: EVQLVESGGGVVRPGGSLRLSCAASGFTFDDYGMNWVRQAPGKGLEWVSGVNWNGGTRDYAASVKGRFTISRDNAKNSLYLQMNSLRAEDTALYYCARGWYSGAAWNMGYWGRGTLVTVSSGGGGSGGGGSGGSGGGSGGGGGGSGGGGSAQAVLTQPSSVSGSPGQSITISCTGASGDVGAYNFVSWYQQHPGKTPKLIIYDVNKRPSGVSNRFSGSKSGNTASLTISGLQAEDESDYYCASLVSDFSVVFGGGTKVTVLGAAAH
B3: 376B10 scFv (non-germlined) (scFv)
scFv: EVQLVQSGAEVKKPGASVKVSCQASGYTFSDYYIHWVRQTPGQGFEWMGWVNPDTGGTRYAQKFQGWVTMTRDMSNTTAYMELPGLRDDDTAVYYCARDLTGYDQYTAWGQGTLVTVSSGGGGSGGGGSGGGGSAQSVLTQPPSVSVAPGKTATITCGGNNFRNKRVHWYQQRPGQAPVLVIYYDSDRPSGIPERFSGSRSGNTATLTISRVEAGDEADFYCSTFDPFTDRPLFGGGTKLTVLGAAAH
B4: 166B06 IgG (non-germlined) (antibody, V domains shown)
VH: EVQLVQSGAEVKKPGASVKVSCQASGYTFSDYYIHWVRQTPGQGFEWMGWVNPDTGGTRYAQKFQGWVTMTRDMSNTTAYMELPRLRDDDTAVYYCARDLTGFDPFDIWGQGTLVTVSS
VL: QSVLTQPPSVSVAPGKTATITCGGNNFRNKRVHWYQQRPGQAPVLVIYYDSDRPSGIPERFSGSRSGNTATLTISRVEAGDEADFYCQVWDLFNDNGVFGGGTKLTVLG
B5: 166G05 IgG (non-germlined) (antibody, V domains shown)
VH: B4 VH
VL: B4 VL with L92F, F93L, N94T, N96S, V98S
B6: 354A08 scFv (non-germlined) (scFv)
scFv: QVQLVQSGAEKKPGASVKVSCKASGYTFTDYYMHWVRQAPGQGLEWVGWINPYTGGAFYAQKFRGRVTMTRDTSINTAYMELSRLGSDDTAVYYCAREPERFGDSTGQVWGRGTMVTVSSGGGGSGGGGSGGSRSAQAVLTQPSSVSGAPRQRVTISCTGSSSNIGAGYGVHWYQQLPGTAPKLLIYGNSNRPSGVPDRFSGSKSGTSASLAITGLQAEDEADYYCYHWDKEQSGYVFGTGTQLTVLSA
B7: 097D09 scFv (non-germlined) (scFv)
scFv: EVQLVESGGGLVTPGGSLRLSCAASGFTFSDYYMSWVRQAPGRGLEWVSAISGSGGSTYYADSVKGRITISRDNAKNSLYLQMSSLRSEDTAVYYCARGLWVWDPLDYWGRGTLVTVSSGGGGSGGGGSGGGGSDIQMTQSPSTLSASIGDRVTITCRASEGIYHWLAWYQQKPGKAPKLLIYKASSLASGAPSRFSGSGFGTDFTLTISSLQPDDFATYYCQQYSEFAWTFGGGTKLEIKRAAAH
B8: 166G05 scFv (non-germlined) (scFv)
scFv: EVQLVQSGAEVKKPGASVKVSCQASGYTFSDYYIHWVRQTPGQGFEWMGWVNPDTGGTRYAQKFQGWVTMTRDMSNTTAYMELPRLRDDDTAVYYCARDLTGFDPFDIWGQGTLVTVSSGGGGSGGGGSGGGGSAQSVLTQPPSVSVAPGKTATITCGGNNFRNKRVHWYQQRPGQAPVLVIYYDSDRPSGIPERFSGSRSGNTATLTISRVEAGDEADFYCQVWDFLTDSGSFGGGTKLTVLGAAAH
B9: 166B06 scFv (non-germlined) (scFv)
scFv: B8 scFv with G123S, F227L, L228F, T229N, S231N, S233V

Substitutions are numbered along the chain they refer to.

The assay has as its target T1, human IL-22. The experiment in a line: cell-based or functional assay.
B1: the “IC50 of scFv (pM) in BaF3-IL-22 proliferation assay” value (shortened to “IC50 of scFv (pM)”) is 118 pM.

Take B2: the “IC50 of scFv (pM)” value was 186 pM.

For the molecule B3, the “IC50 of scFv (pM)” value was found to be 104 pM.

For the molecule B4, the “IC50 of IgG (pM) in BaF3-IL-22 proliferation assay” value is 71 pM.

Consider B5, for which the “IC50 of IgG (pM) in BaF3-IL-22 proliferation assay” value came to 97 pM.

B6: the “IC50 of scFv (pM)” value is 219 pM.

On to B7, for which the “IC50 of scFv (pM)” value is 298 pM.

For the molecule B8, the “IC50 of scFv (pM)” value worked out at 204 pM.

With B9, the “IC50 of scFv (pM)” value is 460 pM.
